T1: His:BZR1 (Oryza sativa (rice), UniProt Q7XI96 1-298)
T1 sequence: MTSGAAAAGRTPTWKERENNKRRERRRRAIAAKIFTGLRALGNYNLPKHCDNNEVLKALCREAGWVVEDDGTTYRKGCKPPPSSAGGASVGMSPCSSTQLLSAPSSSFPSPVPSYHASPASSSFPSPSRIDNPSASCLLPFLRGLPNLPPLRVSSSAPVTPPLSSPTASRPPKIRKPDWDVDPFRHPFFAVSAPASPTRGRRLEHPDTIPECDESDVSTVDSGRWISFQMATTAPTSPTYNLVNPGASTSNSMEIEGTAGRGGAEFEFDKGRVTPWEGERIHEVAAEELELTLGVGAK

B1: probe A (BRRE A, AMT1;2 promoter P4) (dsDNA)
DNA 1: GTCTCACCGGGCTGCGTGCGTACGCCGATA
DNA 2: TATCGGCGTACGCACGCAGCCCGGTGAGAC
B2: probe B (BRRE B, AMT1;2 promoter P4) (dsDNA)
DNA 1: TGGTCGCATCGTCGTGCGTGAGCTGCCTATCG
DNA 2: CGATAGGCAGCTCACGCACGACGATGCGACCA

Legend:
His:BZR1 [1] = molecular target: T1, His:BZR1; assay: EMSA; slightly weaker than probe B; EMSA: 1 ug His:BZR1, 40k cpm 32P-labeled probe; buffer, salt, pH and temperature not given (protocol of Je et al., 2010); conditions: protein: recombinant; tags: His (pET28a(+)); chain copies: 2; label: 32P; blunt
His:BZR1 [2] = molecular target: T1, His:BZR1; assay: EMSA; stronger than probe A; EMSA: 1 ug His:BZR1, 40k cpm 32P-labeled probe; buffer, salt, pH and temperature not given (protocol of Je et al., 2010); conditions: protein: recombinant; tags: His (pET28a(+)); chain copies: 2; label: 32P; blunt

| Binder | binding result (His:BZR1 [1]) | binding result (His:BZR1 [2]) |
| --- | --- | --- |
| B1 | binds | – |
| B2 | – | binds |

— article PMC8247761, “BZR1 Regulates Brassinosteroid-Mediated Activation of AMT1;2 in Rice”
